{"source": "paper PMC7943553", "about": "(2021)", "key": {"[1]": {"molecular_target": "250233", "assay": "BLI"}, "[2]": {"molecular_target": "335338", "assay": "BLI"}, "[3]": {"molecular_target": "326327", "assay": "BLI"}, "[4]": {"molecular_target": "260261", "assay": "BLI"}, "[5]": {"molecular_target": "262231", "assay": "BLI"}, "[6]": {"molecular_target": "279280", "assay": "BLI"}, "[7]": {"molecular_target": "346343", "assay": "BLI"}, "[8]": {"molecular_target": "267268", "assay": "BLI"}, "[9]": {"molecular_target": "254255", "assay": "BLI"}, "[10]": {"molecular_target": "340341", "assay": "BLI"}, "[11]": {"molecular_target": "256257", "assay": "BLI"}, "[12]": {"molecular_target": "277278", "assay": "BLI"}, "[13]": {"molecular_target": "239229", "assay": "BLI"}, "[14]": {"molecular_target": "281282", "assay": "BLI"}, "[15]": {"molecular_target": "252248", "assay": "BLI"}, "[16]": {"molecular_target": "250233", "assay": "BLI; representative sensorgram"}, "[17]": {"molecular_target": "335338", "assay": "BLI; representative sensorgram"}, "[18]": {"molecular_target": "326327", "assay": "BLI; representative sensorgram"}, "[19]": {"molecular_target": "260261", "assay": "BLI; representative sensorgram"}, "[20]": {"molecular_target": "262231", "assay": "BLI; representative sensorgram"}, "[21]": {"molecular_target": "279280", "assay": "BLI; representative sensorgram"}, "[22]": {"molecular_target": "346343", "assay": "BLI; representative sensorgram"}, "[23]": {"molecular_target": "267268", "assay": "BLI; representative sensorgram"}, "[24]": {"molecular_target": "254255", "assay": "BLI; representative sensorgram"}, "[25]": {"molecular_target": "340341", "assay": "BLI; representative sensorgram"}, "[26]": {"molecular_target": "256257", "assay": "BLI; representative sensorgram"}, "[27]": {"molecular_target": "277278", "assay": "BLI; representative sensorgram"}, "[28]": {"molecular_target": "239229", "assay": "BLI; representative sensorgram"}, "[29]": {"molecular_target": "252248", "assay": "BLI; representative sensorgram"}}}
{"binder": "P. vivax Reticulocyte Binding Protein 2b, residues 161–1454 (domain or fragment, DyLight 488 (NHS ester) in the FRET assay; biotin (BirA site) in the competition ELISA between human mAbs) PSPESTQITNTTDNIDYFDISDESNYYLISQLRPHFSNIYFFDEFKRYASYHTEIKRYEDIHKTKVNSLLNEASRAIGICNRAKNTVKGLINILENPQKFKTQRESYDVKLRQYEEKKEAFRGCLLNKNRKNLDQIKKINNEIRDLLEKLKCSQDCQTNVYFDMIKIYLVDFKKMPYENYDTFIKQYKNSYLSGVDMIRKIEKQIDNPVTINAIKFTQKEMGYIIDRFEYHLQKVKHSIDQVTALSDGVKPKQVTKNRLKEYYFNIGNYYSIFKFGKDSLNMLNKALIHKEKIVHNLLGELFGHLEERISKLIDSEYFITESNNIISQSEETLKLAEDVYDKNTKLIEDLTLYPHLEINEFKKDYDNNVEDLRESIIYIQSYVSSIKSAYRYNVLEKDSVESKQKNIPANSNAQKKVDELLSIIDSISYSNFSVAENFQKMKDYYKEIEKLKIKILQLIEAIKKYQQHVEELINKEKAVAILKEDINKIIEYIKGIIEKLKQLISANKDFDKIFQQVEQLINEALFNKDQFEHNKNDLHTKMKEIMHTFHERDLQQFLDNMSKFLKDQEASYQNADSKEKLDQLLTTVKAKQDELKEMKCDDIPDIIDNLKKESQNVLNLKDEVINKQFENMRTEMSSSLDQMTKEYNALKSSIEEYEAEKKGIENHKQNIIKRKNTFIVAEHENDEDVPEGKNTYNEFISNKDTILQKESAISNQMNTLEEKKRNRKTTLQTYGDAIQKLETYTEKKDEETKVLLDKFNTEVENFKLDEDEKSFNDAKSIVSNTINEVENENKNIDSIKKVNIAMKRSRSNQQSVEQLIRNKDNLLKEKMEKHFQKINTDEIIGQSAKANLLNNLESEKAIINEQLNDAHLNDLKLQIEKTLSYCEKSRENIKGNNGTHPEELNASEIEWEATKGKIETLNSNYQALNKNMDDIINKQHDEMIVLIDRDIKEKGKDIELKVEQRIQALEKMKAKLSSFDTNEDVKKYQSDINKEELIKLKEMSTAVLNKIDQNKNQLINVKTKSSGYVAESNGIKNKQTEPSQEKDKQIVYNTNRGDIEKVYKNIRDMYNELDDVEKEETTSNEVDNIEMQYDRLLINLLVQKINEENTKAKGLMEEIKSYIENIESVQAKMSDETREGATEFEFNQYQQSSLANDKKITEIVQHAINKKGEAERSKKTNEVKSIKNDVNTYMQQVIDEYNAMQKALGDIKNVNDLLISTSGRRIAEEISKSTNEAENFEKQAKGELGKINDIIEKMENQMVQAKEHENKIHINLEDKQIDEEVQKIRQIHEE", "values": [{"measurement": "Kd", "setting": "[1]", "value": 0.988, "unit": "nM"}, {"measurement": "koff", "setting": "[1]", "value": 0.00035, "unit": "s⁻¹"}, {"measurement": "Kd", "setting": "[2]", "value": 0.0782, "unit": "nM"}, {"measurement": "koff", "setting": "[2]", "value": "3.08e-05", "unit": "s⁻¹"}, {"measurement": "Kd", "setting": "[3]", "value": 0.642, "unit": "nM"}, {"measurement": "koff", "setting": "[3]", "value": 0.000246, "unit": "s⁻¹"}, {"measurement": "Kd", "setting": "[4]", "value": 0.0205, "unit": "nM"}, {"measurement": "koff", "setting": "[4]", "value": "6.23e-06", "unit": "s⁻¹"}, {"measurement": "Kd", "setting": "[5]", "value": 0.14, "unit": "nM"}, {"measurement": "koff", "setting": "[5]", "value": "6.22e-05", "unit": "s⁻¹"}, {"measurement": "Kd", "setting": "[6]", "value": 0.727, "unit": "nM"}, {"measurement": "koff", "setting": "[6]", "value": 0.000194, "unit": "s⁻¹"}, {"measurement": "Kd", "setting": "[7]", "value": "< 0.01", "unit": "nM"}, {"measurement": "koff", "setting": "[7]", "value": "< 1e-06", "unit": "s⁻¹"}, {"measurement": "Kd", "setting": "[8]", "value": 0.213, "unit": "nM"}, {"measurement": "koff", "setting": "[8]", "value": "5.71e-05", "unit": "s⁻¹"}, {"measurement": "Kd", "setting": "[9]", "value": 0.0742, "unit": "nM"}, {"measurement": "koff", "setting": "[9]", "value": "2.52e-05", "unit": "s⁻¹"}, {"measurement": "Kd", "setting": "[10]", "value": 0.107, "unit": "nM"}, {"measurement": "koff", "setting": "[10]", "value": "3.85e-05", "unit": "s⁻¹"}, {"measurement": "Kd", "setting": "[11]", "value": "< 0.01", "unit": "nM"}, {"measurement": "koff", "setting": "[11]", "value": "< 1e-06", "unit": "s⁻¹"}, {"measurement": "Kd", "setting": "[12]", "value": 0.0796, "unit": "nM"}, {"measurement": "koff", "setting": "[12]", "value": "3.08e-05", "unit": "s⁻¹"}, {"measurement": "Kd", "setting": "[13]", "value": 0.112, "unit": "nM"}, {"measurement": "koff", "setting": "[13]", "value": "4.6e-05", "unit": "s⁻¹"}, {"measurement": "Kd", "setting": "[14]", "value": 0.0273, "unit": "nM"}, {"measurement": "koff", "setting": "[14]", "value": "6.03e-06", "unit": "s⁻¹"}, {"measurement": "Kd", "setting": "[15]", "value": 0.586, "unit": "nM"}, {"measurement": "koff", "setting": "[15]", "value": 0.000193, "unit": "s⁻¹"}, {"measurement": "Kd", "setting": "[16]", "value": 1, "unit": "nM"}, {"measurement": "Kd", "setting": "[17]", "value": 0.0505, "unit": "nM"}, {"measurement": "Kd", "setting": "[18]", "value": 0.5, "unit": "nM"}, {"measurement": "Kd", "setting": "[19]", "value": "< 0.01", "unit": "nM"}, {"measurement": "Kd", "setting": "[20]", "value": 0.1, "unit": "nM"}, {"measurement": "Kd", "setting": "[21]", "value": 0.8, "unit": "nM"}, {"measurement": "Kd", "setting": "[22]", "value": "< 0.01", "unit": "nM"}, {"measurement": "Kd", "setting": "[23]", "value": 0.3, "unit": "nM"}, {"measurement": "Kd", "setting": "[24]", "value": 0.0157, "unit": "nM"}, {"measurement": "Kd", "setting": "[25]", "value": 0.0794, "unit": "nM"}, {"measurement": "Kd", "setting": "[26]", "value": "< 0.01", "unit": "nM"}, {"measurement": "Kd", "setting": "[27]", "value": 0.0189, "unit": "nM"}, {"measurement": "Kd", "setting": "[28]", "value": 0.1, "unit": "nM"}, {"measurement": "Kd", "setting": "[29]", "value": 0.3, "unit": "nM"}]}
